Reference: patent publication US20200199241A1 (Chugai, published 2020)

B1: IgG1-F1038 (antibody)
heavy: QVQLQESGPGLVKPSETLSLTCAVSGHSISHDHAWSWVRQPPGEGLEWIGFISYSGITNYNPSLQGRVTISRDNSKNTLYLQMNSLRAEDTAVYYCARSLARTTAMDYWGEGTLVTVSSASTKGPSVFPLAPSSKSTSGGTAALGCLVKDYFPEPVTVSWNSGALTSGVHTFPAVLQSSGLYSLSSVVTVPSSSLGTQTYICNVNHKPSNTKVDKKVEPKSCDKTHTCPPCPAPELKGGDKVFLFPPKPKDTLYISRTPEVTCVVVDVSHEDPEVKFNWYVDGVEVHNAKTKPREEQYNSTYRVVSVLTVLHQDWLNGKEYKCKVSNKALPAPIEKTISKAKGQPREPQVYTLPPSRDELTKNQVSLTCLVKGFYPSDIAVEWESNGQPENNYKTTPPVLDSDGSFFLYSKLTVDKSRWQQGNVFSCSVMHEALHYHYTQKSLSLSP
light: not shown
notes: EU numbering; copies: 2 + 2
B2: IgG1-F1046 (antibody)
heavy: QVQLQESGPGLVKPSETLSLTCAVSGHSISHDHAWSWVRQPPGEGLEWIGFISYSGITNYNPSLQGRVTISRDNSKNTLYLQMNSLRAEDTAVYYCARSLARTTAMDYWGEGTLVTVSSASTKGPSVFPLAPSSKSTSGGTAALGCLVKDYFPEPVTVSWNSGALTSGVHTFPAVLQSSGLYSLSSVVTVPSSSLGTQTYICNVNHKPSNTKVDKKVEPKSCDKTHTCPPCPAPELKGGPKVFLFPPKPKDVLYISRTPEVTCVVVDVSHEDPEVKFNWYVDGVEVHEAKTKPREEQYNSTYRVVSVLQPLHADWLNGKEYKCKVSNKALPAPIEKTISKAKGQPREPQVYTLPPSRDELTKNQVSLTCLVKGFYPSDIAVEWESNGQPENNYKTTPPVLDSDGSFFLYSKLTVDKSRWQQGNVFSCSVMHEALHYHVTQKSLSLSP
light: not shown
notes: EU numbering; copies: 2 + 2
B3: IgG1-F1043 (antibody)
heavy: QVQLQESGPGLVKPSETLSLTCAVSGHSISHDHAWSWVRQPPGEGLEWIGFISYSGITNYNPSLQGRVTISRDNSKNTLYLQMNSLRAEDTAVYYCARSLARTTAMDYWGEGTLVTVSSASTKGPSVFPLAPSSKSTSGGTAALGCLVKDYFPEPVTVSWNSGALTSGVHTFPAVLQSSGLYSLSSVVTVPSSSLGTQTYICNVNHKPSNTKVDKKVEPKSCDKTHTCPPCPAPELKGGPKVFLFPPKPKDVLYISRTPEVTCVVVDVSHEDPEVKFNWYVDGVEVHNAKTKPREEQYNSTYRVVSVLTPLHQDWLNGKEYKCKVSNKALPAPIEKTISKAKGQPREPQVYTLPPSRDELTKNQVSLTCLVKGFYPSDIAVEWESNGQPENNYKTTPPVLDSDGSFFLYSKLTVDKSRWQQGNVFSCSVMHEALHYHYTQKSLSLSP
light: not shown
notes: EU numbering; copies: 2 + 2
B4: IgG1-F1041 (antibody)
heavy: QVQLQESGPGLVKPSETLSLTCAVSGHSISHDHAWSWVRQPPGEGLEWIGFISYSGITNYNPSLQGRVTISRDNSKNTLYLQMNSLRAEDTAVYYCARSLARTTAMDYWGEGTLVTVSSASTKGPSVFPLAPSSKSTSGGTAALGCLVKDYFPEPVTVSWNSGALTSGVHTFPAVLQSSGLYSLSSVVTVPSSSLGTQTYICNVNHKPSNTKVDKKVEPKSCDKTHTCPPCPAPELKGGPKVFLFPPKPKDVLYISRTPEVTCVVVDVSHEDPEVKFNWYVDGVEVHNAKTKPREEQYNSTYRVVSVLQPLHADWLNGKEYKCKVSNKALPAPIEKTISKAKGQPREPQVYTLPPSRDELTKNQVSLTCLVKGFYPSDIAVEWESNGQPENNYKTTPPVLDSDGSFFLYSKLTVDKSRWQQGNVFSCSVMHEALHYHVTQKSLSLSP
light: not shown
notes: EU numbering; copies: 2 + 2
B5: IgG1-F1045 (antibody)
heavy: QVQLQESGPGLVKPSETLSLTCAVSGHSISHDHAWSWVRQPPGEGLEWIGFISYSGITNYNPSLQGRVTISRDNSKNTLYLQMNSLRAEDTAVYYCARSLARTTAMDYWGEGTLVTVSSASTKGPSVFPLAPSSKSTSGGTAALGCLVKDYFPEPVTVSWNSGALTSGVHTFPAVLQSSGLYSLSSVVTVPSSSLGTQTYICNVNHKPSNTKVDKKVEPKSCDKTHTCPPCPAPELKGGPKVFLFPPKPKDTLYISRTPEVTCVVVDVSHEDPEVKFNWYVDGVEVHNAKTKPREEQYNSTYRVVSVLQPLHADWLNGKEYKCKVSNKALPAPIEKTISKAKGQPREPQVYTLPPSRDELTKNQVSLTCLVKGFYPSDIAVEWESNGQPENNYKTTPPVLDSDGSFFLYSKLTVDKSRWQQGNVFSCSVMHEALHYHYTQKSLSLSP
light: not shown
notes: EU numbering; copies: 2 + 2
B6: IgG1-F1047 (antibody)
heavy: QVQLQESGPGLVKPSETLSLTCAVSGHSISHDHAWSWVRQPPGEGLEWIGFISYSGITNYNPSLQGRVTISRDNSKNTLYLQMNSLRAEDTAVYYCARSLARTTAMDYWGEGTLVTVSSASTKGPSVFPLAPSSKSTSGGTAALGCLVKDYFPEPVTVSWNSGALTSGVHTFPAVLQSSGLYSLSSVVTVPSSSLGTQTYICNVNHKPSNTKVDKKVEPKSCDKTHTCPPCPAPELKGGPKVFLFPPKPKDTLYISRTPEVTCVVVDVSHEDPEVKFNWYVDGVEVHEAKTKPREEQYNSTYRVVSVLQPLHADWLNGKEYKCKVSNKALPAPIEKTISKAKGQPREPQVYTLPPSRDELTKNQVSLTCLVKGFYPSDIAVEWESNGQPENNYKTTPPVLDSDGSFFLYSKLTVDKSRWQQGNVFSCSVMHEALHYHVTQKSLSLSP
light: not shown
notes: EU numbering; copies: 2 + 2
B7: IgG1-F1042 (antibody)
heavy: QVQLQESGPGLVKPSETLSLTCAVSGHSISHDHAWSWVRQPPGEGLEWIGFISYSGITNYNPSLQGRVTISRDNSKNTLYLQMNSLRAEDTAVYYCARSLARTTAMDYWGEGTLVTVSSASTKGPSVFPLAPSSKSTSGGTAALGCLVKDYFPEPVTVSWNSGALTSGVHTFPAVLQSSGLYSLSSVVTVPSSSLGTQTYICNVNHKPSNTKVDKKVEPKSCDKTHTCPPCPAPELKGGPKVFLFPPKPKDTLYISRTPEVTCVVVDVSHEDPEVKFNWYVDGVEVHNAKTKPREEQYNSTYRVVSVLAVLHHDWLNGKEYKCKVSNKALPAPIEKTISKAKGQPREPQVYTLPPSRDELTKNQVSLTCLVKGFYPSDIAVEWESNGQPENNYKTTPPVLDSDGSFFLYSKLTVDKSRWQQGNVFSCSVMHEALHYHYTQKSLSLSP
light: not shown
notes: EU numbering; copies: 2 + 2
B8: IgG1-F1040 (antibody)
heavy: QVQLQESGPGLVKPSETLSLTCAVSGHSISHDHAWSWVRQPPGEGLEWIGFISYSGITNYNPSLQGRVTISRDNSKNTLYLQMNSLRAEDTAVYYCARSLARTTAMDYWGEGTLVTVSSASTKGPSVFPLAPSSKSTSGGTAALGCLVKDYFPEPVTVSWNSGALTSGVHTFPAVLQSSGLYSLSSVVTVPSSSLGTQTYICNVNHKPSNTKVDKKVEPKSCDKTHTCPPCPAPELKGGPKVFLFPPKPKDVLYISRTPEVTCVVVDVSHEDPEVKFNWYVDGVEVHNAKTKPREEQYNSTYRVVSVLTVLHQDWLNGKEYKCKVSNKALPAPIEKTISKAKGQPREPQVYTLPPSRDELTKNQVSLTCLVKGFYPSDIAVEWESNGQPENNYKTTPPVLDSDGSFFLYSKLTVDKSRWQQGNVFSCSVMHEALHYHVTQKSLSLSP
light: not shown
notes: EU numbering; copies: 2 + 2
B9: IgG1-F1044 (antibody)
heavy: QVQLQESGPGLVKPSETLSLTCAVSGHSISHDHAWSWVRQPPGEGLEWIGFISYSGITNYNPSLQGRVTISRDNSKNTLYLQMNSLRAEDTAVYYCARSLARTTAMDYWGEGTLVTVSSASTKGPSVFPLAPSSKSTSGGTAALGCLVKDYFPEPVTVSWNSGALTSGVHTFPAVLQSSGLYSLSSVVTVPSSSLGTQTYICNVNHKPSNTKVDKKVEPKSCDKTHTCPPCPAPELKGGPKVFLFPPKPKDVLYISRTPEVTCVVVDVSHEDPEVKFNWYVDGVEVHNAKTKPREEQYNSTYRVVSVLQPLHADWLNGKEYKCKVSNKALPAPIEKTISKAKGQPREPQVYTLPPSRDELTKNQVSLTCLVKGFYPSDIAVEWESNGQPENNYKTTPPVLDSDGSFFLYSKLTVDKSRWQQGNVFSCSVMHEALHYHYTQKSLSLSP
light: not shown
notes: EU numbering; copies: 2 + 2

molecular target: T1, soluble human FcRn complexed with β2-microglobulin (human, UniProt P61769 21-119, limits assumed); assay: Biacore SPR, pH 7.0;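 note: test antibodies captured on a Protein L chip with human FcRn flowed over as analyte, KD obtained as the ratio of dissociation to association rate constants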
T1 construct: also called hFcRn
T1 sequence (chain, as listed by the source limits assumed, chain 1 of 2): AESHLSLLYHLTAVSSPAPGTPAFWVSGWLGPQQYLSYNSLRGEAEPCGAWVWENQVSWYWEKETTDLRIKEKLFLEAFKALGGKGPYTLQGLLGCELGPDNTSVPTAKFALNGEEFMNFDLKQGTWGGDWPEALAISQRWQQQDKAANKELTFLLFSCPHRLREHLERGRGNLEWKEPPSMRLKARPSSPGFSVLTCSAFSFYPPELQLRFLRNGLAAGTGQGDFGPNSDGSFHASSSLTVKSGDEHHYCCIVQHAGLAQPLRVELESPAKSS
T1 sequence (P61769 21-119 limits assumed, chain 2 of 2): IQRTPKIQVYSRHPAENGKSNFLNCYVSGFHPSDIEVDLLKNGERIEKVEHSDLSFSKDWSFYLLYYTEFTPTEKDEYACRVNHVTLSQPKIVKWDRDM
Description: A kinetic analysis of binding between human FcRn and the aforementioned antibodies was carried out using the BIACORE™ T100 or T200 surface plasmon resonance system (GE Healthcare). The antibodies being tested were captured on the CM4 Sensor Chip (GE Healthcare) on which a suitable amount of Protein L (ACTIGEN® protein (Alltech)) was suitably immobilized by amine coupling. Next, diluted human FcRn and a running buffer used as a blank were injected to allow the human FcRn to interact with the antibody captured on the sensor chip. A buffer consisting of 50 mmol/L sodium phosphate, 150 mmol/L NaCl and 0.05% (w/v) polysorbate 20 (Tween 20®) (pH 7.0 or pH 7.4) was used for the running buffer, and each buffer was also used to dilute the human FcRn. 10 mmol/L glycine-HCl (pH 1.5) was used to regenerate the sensor chip. All measurements of binding were carried out at 25° C. The KD(M) of each antibody to human FcRn was calculated based on kinetics parameters, i.e., the association rate constant ka (1/Ms) and the dissociation rate constant kd (1/s) calculated from a sensorgram obtained by the measurement. The BIACORE™ T100 or T200 Evaluation Software (GE Healthcare) was used to calculate each parameter.

**Q.** With B1 as the binder, how does the Kd read?
**A.** 280 nM

**Q.** With B2 as the binder, how does the Kd read?
**A.** 4.5 nM

**Q.** With B3 as the binder, how does the Kd read?
**A.** 52 nM

**Q.** How did the Kd turn out when B4 was run?
**A.** 14 nM

**Q.** B5 was tested. Which Kd did it give?
**A.** 25 nM

**Q.** With B6 as the binder, how does the Kd read?
**A.** 3.4 nM

**Q.** Which Kd does the source give for B7 here?
**A.** 200 nM

**Q.** For B8, which Kd is on record?
**A.** 200 nM

**Q.** With B9 as the binder, how does the Kd read?
**A.** 35 nM
